# Assay results as given in patent US10962518B2, “Dissolution test for sensitive drugs” (ROYAN INSTITUTE, priority 2017, dated 2021).
# Like-named read-outs stand apart in the source and are kept apart here.
# Experiments:
# [1] = cited from earlier work; for tstability of drug: at 37° C.
# [2] = hGH stability tests in phosphate buffer (0.01 ppm hGH solution, stability versus time); type: physicochemical; details: 0.01 ppm hGH in 0.05 M phosphate buffer pH=7.4
# Description: In this example, exemplary systems and methods were used for performing dissolution tests on human growth hormone (hGH), consistent with an exemplary embodiment of the present disclosure. The release performance of hGH was evaluated for a 14-day period. First, the stability of hGH in a phosphate buffer at 37±1° C. was tested. To this end, a 0.01 ppm hGH solution in a 0.05 M phosphate buffer with a pH=7.4 was prepared. The prepared hGH solution was maintained at a temperature of approximately 37±1° C. and stability analyses were performed at 0, 1, 2, 3, 4, 6, 12, and 24 hours.
# FIG. 4 illustrates an hGH stability versus time graph obtained from stability tests performed at 37±1° C., consistent with one or more exemplary embodiments of the present disclosure. […] Therefore, if a dissolution test was to be performed by available USP apparatuses, the hGH solution would have to be prepared, sampled and analyzed every 2 hours, which means for a dissolution evaluation that needs to be performed during a 14-day period, at least 168 dissolution tests must be performed.
# The stability of hGH was then tested in a phosphate buffer at 5±2° C. To this end, a 0.01 ppm hGH solution in a 0.05 M phosphate buffer with a pH=7.4 was prepared. The prepared hGH solution was maintained at a temperature of approximately 5±2° C. and stability analyses were performed at 0, 1, 2, 3, 4, and 5 days. […]
compound,measurement,setting,value
"IGF-I: IGF-I, a drug listed in Table 2 with serum as its dissolution medium",tstability of drug,[1]; serum,<10 h
COc1ccc2[nH]c([S+]([O-])Cc3ncc(C)c(OC)c3C)nc2c1 (stereo not shown) [Omeprazole],tstability of drug,[1]; phosphate buffer pH 7.5,<10 h
"hGH: human growth hormone (hGH), the temperature-sensitive drug used in the Example",tstability of drug,[1]; PBS buffer pH = 7.4,1 h
same,time for which the hGH solution is stable,"[2]; 5±2° C., analyses at 0-5 days (FIG. 5)",1 days
same,time for which the hGH solution is stable,"[2]; 37±1° C., analyses at 0-24 hours (FIG. 4)",0.083 days
"O=C1CN(/N=C/c2ccc(-c3ccc([N+](=O)[O-])cc3)o2)C(=O)[N-]1.[Na+] [Dantrolene, dantrolene sodium]",tstability of drug,[1]; Buffer with pH 7.4,1 h
same,time for which the drug is stable in the dissolution medium,"[1]; phosphate buffer with a pH of 7.4, approximately 37° C.",1 h
